We go through one substance from US20120264231A1, “ASSAY FOR ORAI CALCIUM CHANNEL REGULATORS” (IMMUNE DISEASE INSTITUTE, INC., priority 2009, published 2012).

The target in this assay is ORAI1 (E106Q) (Homo sapiens, UniProt Q96D31, E106Q). The assay can be described thus: Cameleon D3 cpV intravesicular Ca^2+ assay, vesicles with ORAI1 (E106Q). The format is biochemical. On the set-up: the ORAI functional fragment is ORAI1 (65-301), ORAI1 (65-87), or full length ORAI1; made in house; host or cells: S. cerevisiae NY17 (sec6-4), isolated secretory vesicles. The following applies: vesicles containing ORAI1 (E106Q). An excerpt:
Confirmation that Ca^2+ release from the vesicles was due to gating of the ORAI 1 channel was sought. […] It was concluded that the in vitro assay reflects STIM 1-dependent gating of ORAI1 and Ca^2+ flux through the ORAI1 channel pore.
The yeast expression vector pBEVY-GU60 allows for simultaneous expression of two transgenes by means of the bidirectional GAL1-10 promoter. The FRET-based calcium sensors D3 cpV and D4 cpV53 were fused at the N-terminus with the S. cerevisiae α-mating factor secretion signal (Bitter, G. A., et al., Proc Natl Acad Sci USA 81, 5330-5334 (1984)), which directs proteins into the secretory pathway, and introduced into pBEVY-GU in the following way. Vector pPIC9 (Invitrogen) served as template for PCR amplification of the α-mating factor secretion signal (5′ primer: […] (SEQ ID NO: 2); 3′ primer: […] (SEQ ID NO: 3)), introducing an EcoRI site at the 5′ end, and a sequence complementary to that encoding the N-terminus of the calcium sensor at the 3′ end. DNA encoding the N-terminal portion of the calcium sensor D3 cpV, comprising CFP, was amplified by PCR (5′ primer: […] (SEQ ID NO: 4); 3′ primer: […] (SEQ ID NO: 5)), introducing an SphI site followed by a stop codon and a NotI site at the 3′ end of the resulting DNA fragment. […]

Sequence of ORAI1 (E106Q) (Q96D31 2-301 E106Q): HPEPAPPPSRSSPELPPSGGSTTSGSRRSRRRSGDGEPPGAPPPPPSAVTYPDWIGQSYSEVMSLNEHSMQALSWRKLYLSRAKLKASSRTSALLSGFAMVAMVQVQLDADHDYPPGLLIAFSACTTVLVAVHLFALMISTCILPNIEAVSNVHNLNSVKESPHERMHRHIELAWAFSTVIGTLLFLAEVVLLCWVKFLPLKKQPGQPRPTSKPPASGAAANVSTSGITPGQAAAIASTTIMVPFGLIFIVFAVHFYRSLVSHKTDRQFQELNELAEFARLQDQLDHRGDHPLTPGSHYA

For the substance “STIM1^CT: cytoplasmic region of STIM1, mouse residues 233-685, His-tagged recombinant protein expressed in E coli”, the “Ca^2+ release from vesicles” value is on record as “did not elicit Ca^2+ release”.
